From the DeepSol protein solubility set

assay: soluble on expression in E. coli; label from the status in PepcDB or PDB records

Sequence	soluble on expression in E. coli
IQFTESCSMDQSAKEPLINYLDMEYFGTISIGSPPQNFTVIFDTGSSNLWVPSVYCTSPACKTHSRFQPSQSSTYSQPGQSFSIQYGTGSLSGIIGADQVSVEGLTVVGQQFGESVTEPGQTFVDAEFDGILGLGYPSLAVGGVTPVFDNMMAQNLVDLPMFSVYMSSNPEGGAGSELIFGGYDHSHFSGSLNWVPVTKQAYWQIALDNIQVGGTVMFCSEGCQAIVDTGTSLITGPSDKIKQLQNAIGAAPVDGEYAVECANLNVMPDVTFTINGVPYTLSPTAYTLLDFVDGMQFCSSGFQGLDIHPPAGPLWILGDVFIRQFYSVFDRGNNRVGLAPAVPWSHPQFEK	soluble
MLNEKQAKHIATAIENGNYRSKRQAIVDTTNFWSVSVPIFYQFDTKLSATNIANVRKAIQFWNDNSCLSFKEDNNAKNRLFLSSAGGCWSYVGKQVDMPYQMVSVGPNCDTFGTATHELMHAIGFWHQQSRADRDNYVYVDFSNIIPSQAYNFQKMAVDQAQLLNLPYDYGSVMQYYPYAFAVDSSKYTILAKENGFQNSMGQREAPAFSDIIGVNKLYNCTSQCKIQMKCSNCGITDSRNCNQCKCPRYFTGASCDSLPSGTAPNCNGAVLQATSSWETFDAKAGDPSSFSSSTDNSTNCYWHIKAPEGQQIEFKMTKTPLAAICMQECPWQSIEVNLGKFDLFGMITCCDTILNQVFTSELNMIALRGIIRYNQLTFSIQYRAVPSSKPASTNACLNQ	not soluble
MSRKFPSFIVDAFTTKSFAGNPAAVCLIPEVFKDQEYLKIAAEFNLSETAFPVPIGSTDFKTCSQFSLRWFTPKTEVPLCGHATLATSHVLFNEVGNVNKEIKFDTQSGVLIAKRDEKGNVEMNFPEYDLASVKFNDTPNPLQGIFSEFEAPSFLFEVIKCVVPTEMIIESVVYSSKSRKLIVIVDPETTKFELEAVRIDCSKMLEIHDGSFVRGLAISLRPSNPMAQGFVDSSDEPYDYACRYFAPWVGIDEDPATGSAQCVMGPFWSKMLGKNELYAFQAFPTRGAQFRIRLQDDRVILNGPSVTVLRGELALN	not soluble
MSENPVVSDKKPGPSKDSSFFSDLYDNLNQNPYFNAGAGLAGIGIAMSFLRRTAQISNTYFRRRFMINLQINNEDAAYPWLLDFINNRSATQTRNLSANTVVHQAESGKTELSISFLPGHGTHFFVHDYRWIKVERQREKQVIQRDGIRTPFETVTLTTLGSDVKFFKRMLEQSAKEAIDNAETGLVIYQAVGPQWIRFGVPRKKRDIESVILDGRICEELVEDFQEFISSATWYADRGVPYRRGYLFYGPPGTGKSSFISALASHFGYSVCLLSLSERTLDDDRLNHLLNTAPPNSVVILEDIDAAFVSREDPMSNHPAYQGLSRVTFSGLLNALDGVACAEERLTFMTTNYVERLDPALIRPGRVDRKQYFGNATDGMLSKMFSRFYRQPSDSVLADEFVKRVSEHKTELSPAMIQGHFLMYKQDPRAALDNIKNMFKTV	not soluble
DCSPLSLLFGHSDAVVQALYSNNPVLHCLNSALAQTAKALAGTRRDLRVLEVGAGTGATTRHLLPMLEEHLSEYRFTDVSNLFLTQAQEHFAAWPQLTCSMLDVNQPVDFSQHPAQGYDLVVAVNVMHDAAHVTRSLKRLHRLLRSGGHLLLLEATERDSALQLASIGFIEGLSNFEDERSEDDKAMLDLPRWRTAVQASGFSWVMNWPQQADDSM	not soluble
MNRNRLPALTPGLAWSRPMNGAVDHKGYEQPTYDLEFAETATEIRRYGPYLVAEVTMAGDRSTAITRGFRVLARYIFGGNAESRRIEMTVPVSQLPAGEDLWTVRFTMPAVRSASLLPAPKDSRIRFVTVPPSRQAVRRFSGWPTDHALRRQAEGLAHWIAERGLPKREGPYFYFYDSPMTLPWQRRNEVAFGLGEGAAALEHHHHHH	not soluble
MGSDKIHHHHHHMTAQRPNRLINESSPYLLQHARNPVDWHPWGEEAFALARSEDKPVFLSIGYSTCHWCHVMAHESFEDEAVAALLNEAFINVKVDREDRPDIDSIYMAACQMLTGSGGWPLTIVMTPDGRPFFAATYIPRLSRGGRTGMLELVPRIRDIWRKQRADVTASADSVAEHMRRHAEGLLRPSSGGAPDDTTVRQAVDTLCQRYDARHGGFGSAPKFPAPHSLLLLLRHAHRTQDAARRAQLTGMVSHTLEAMRLGGIFDHAGYGFHRYSTDKEWLLPHFEKMLYDQAMHVLAYTRGWQLTGRPLFRRTAEEIMMYVMRDLTSPQGAFYAAEDADSDAPPHFAAMGLPHRGEGFFYLFTLQEIRGLLSREDALLAEKIWNLQEEGN	not soluble
